In the nanobody polyreactivity screen of Harvey et al. (2022):

Experiment: yeast display, Sf9 membrane polyspecificity reagent, FACS + sequencing; frameworks hold sequencing errors
Outline: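 Synthetic nanobody libraries on Saccharomyces cerevisiae BJ5465 were galactose-induced for 36–48 hours, stained 1 hour at 4 °C with 10% biotinylated, detergent-solubilized Sf9 membrane reagent and enriched on streptavidin microbeads. FACS then separated cells into low and high (top ~1%) gates by anti-HA (expression) and streptavidin (reagent binding) fluorescence. Genes were colony-PCR amplified, MiSeq 2 × 250 sequenced and CDR-length filtered. A clone's polyreactivity label is that of its gate of origin.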

Sequence | polyreactivity (PSR sort gate)
QVQLVESGGGLVQAGGSLRLSCAASGSTLRVNAKGWYRQAPGKERELVAAISYRGGSTYYADSVKGRFTISRDNAKNTVYLQMNSLKPEDTAVYYCAAKQGATRGYYYWGQGTQVTVSS | high polyreactivity
QVQLVESCGGLVQAGGSLRLSCAASGLIFIYNAMGWYRQAPGKERELVAAISRSGGRTYYADSVKGLFTISRDNAKNTVYVQMNSLKPEDTEVYYCATDASTYAYYGGDYWGQGTQVTVSS | low polyreactivity
QVQLVESGGGLDQAGGSLRLSCAPSGSIVRYAMGWYRPAPGKERELVAAISSSGGSTYYADSVKGRFTISRDNAKNTFYLQMNRLKPADTAVYYCAKRIVQASVAAYYYWGQGPQVTVSS | high polyreactivity
QVQLVESGGGLVQAGGSLRLSCAASGRIFSYNAMGWYRQAPGKERELVAAISYGGGRTYYADSVKGRFTISRDNAKNTVYLQMNSLKPEDTAVYYCAASQYRSPYPYRDYYTPDYDYWGQGTQVTVSS | high polyreactivity
QVQLVESGGGLVQAGGSLRLSCAASGRIFIGYAMGWYRQAPGKERELVAAITSGGGTYYADSVKGRFTISRDNAKNTVYLQMNSLKPEDTAVYYCAAAQRYPIKYYYWGQGTQVTVSS | low polyreactivity
QVQLVESGGVLVQAGGSLRLSCAASGSIFDWYVMGWYRQAPGKERELVAAITSTGSTYYADSVKGRFTISLDNAKNTVYLQMNSLKPEDTAVYYCATSFYVYPSYYIMDYWGQGTQVTVSS | low polyreactivity
QVQLVESGGGLVQAGGSLRLSCAASGSTFDYYAMGWYRPAPGKERELVAAISRRGGGTYYADSVKGRFTISRDNAKNTVYLQMNSLKPEDTAVYYCAKAVKYPTKALAVGYWGQGTQVTVSS | high polyreactivity
QVQLVESGGGLVQAGGSLRLSCAASGFTFGENAMGWYRQAPGKERELVAAITGGTDTNYADSVKGRFTISRDNAKNTVYLQMNSLKPEDTAVYYCAAYVPHFAPLGGGGGYDYWGEGTQVTVSS | low polyreactivity
QVQLVESSGGLVQAGGSLRLSCAASGFIFPLYTMGWYRQAPAKERELVAAISVTGGSTYYADSVKGRFTISRDNAKNTVYLQMNSLKPEDTAVYYCNAYLFFLNRVCSFDYWGQGTQVTVSS | high polyreactivity
QVQLVESGGGLVQAGGSLRLSCAASGSTFVWYAMGWYRQAPGKEREFVATISWSDGSTYYADSVKGRFTISRDNAKNTVYLQKNSLKPEDTAVYYCATDVDRFFTYKYDYWGQGTQVTVSS | low polyreactivity
QVQLVESGGGLVQAGGSLRLSCAASGLIFLYYVMAWYRQAPGKERELVAGISRSGGRTNYADSVKGRFTISRDNAKNTVYLQMNSLKPEDTAVYYCAALLSIGQPKPTWYYYWGQGTQVTVSS | high polyreactivity
QVQLVASGGGLVQEGGSLRLSCAASGSTFYVNAMGWYRPAAGKERELVAAISLSGGRTYYADSVKGRFTISRDNAKNPVYLQMNSLNQEDTAVYYCAARDSARYYWGQGTQVTVSS | high polyreactivity
QVQLVESGGGLVQAGGSLRLSCAASGSTFVDNAMGWYRQAPGKEREFVAAIDWSGGSTFYADSVKGRFTISRDNAKNTVYLQMNSLKPEDTAVYYCNADSYPQGDYWGQGSQVTVSS | low polyreactivity
QVQLVESGGGLDQAGGSLRLSCAASGITFTRNAMGWYRQAPGKERELVAAITKSGGGTYYADSVKGRFTISRDNAKNTVYLQMNSLKPEDTAVYYCAAYTDKYGDYNYWGQGTLVTVSS | high polyreactivity
QVQLVESGGGLVQAGGSLRLSCAASGFTFTPNAMGSYRQAPGKERELVAAITSGGNTYADSVKGRFTISRDNAKNTVYLQMNSLKPEDTAVYYCAKGEGYWYIARYLPVGYGYWGQGTQVTVSS | low polyreactivity
LVQLVESGGGLVQAGGSLRLSCAASGRIFPYYMGSYRQAPGKERELVAVKSSGDGTYYADSVKGRFTISRDNAKNTVYFQMNRLKPEDTAVYYCAADAPREYVDHYKYDDDYWGQGTQVTVSS | low polyreactivity
QVQLVESGGGLVQAGGSLRLSCAASGRIFGRYAMGWSRQAPGKERELVAAIRWSVGSTYYADSVKGRFTISRDNAKNTVYLQMNSLKPEDTAVYYCAADIRQSIMDYWGQGTQVTVSS | high polyreactivity
QVQLVESGGALLQAGGSLRLSCAASGRTFPGYGMGWYRQAPGKERELVAVITSNGGITYYADSVKGRFTISRDNAKNTVYLQMNSLKPEDTAVYYCAAYEIYYEFDSWGQGTQVTVSS | low polyreactivity
QVQLVESGGGLVQAGGSLRLSCAASGSIFAVNPMGWYRQAPGKERELVASITSGGSTNYADSVKGRFTISRDNAKIRVYLQMNRLKPEDTAVYYCNADSVRAVSRYDYWGQGTQVTVSS | low polyreactivity
QVQLVESGGGLVQAGGSLRLSCAASGLIFSRYTMGWYRQPPGKERELVAAISSDGSTYYADSVKGRFTISRDNAKNTVYLQMNSLKPEDTAVYYCAARYWVGGRDRYDSWGQGTQVTVSS | high polyreactivity
QVQLVESGGGLVQAGGSLRLSCAASGSIFTDNAMGWYRQAPGKERELVAAITSNGGSTYYADSVKGRFTISRDNAKNTVYLQMNSLKPEDTAVYYCAADSLYREDDYWGHGTQVTVSS | low polyreactivity
QVQLVDSGGGLVQAGGSLRLSCAASGRTLAGYVMGWYRQAPGKERELVATISNGGSTYYADSVKGRFTISRDNAKNTVYLQMNSLKPEDTAVYYCNRYWYRKHSTDPPVRYRPVGYWGQGTQVTVSS | high polyreactivity

Sequence | polyreactivity (PSR sort gate)
QVQLVESGGGLVQAGGSLRLSCAASGRTFRFYAMGWYRQAPGKEREFVAAISRCVGSTYYADSVKGRFTISRDNAKNNVYLQMNSLKPEDTAVYYCNADYRSRYVEYDYWGQGTQVTVSS | high polyreactivity
QVQLVESGGGLVQAGGSLRLSCAASGFTFFSNAMGWYIQAPGKERELVAAITSSGGSTYADSVKGRFTISRDNAKNTVYLQMNSLKPEDTAVYYCAADAQAPPGGFKEYDYWGQGTQVTVSS | low polyreactivity
QVQLVESGGGLVQAGGSLRLSCAASGSTLRFYAMGWYRQAAGKERELVADITYRGGSTYYADSVKGRFTISRDNAKNTVYLQMNSLKPEDTAVDYCAKQRSYSSKFDYWGQGSQVTVSS | high polyreactivity
QVQLVESGGGLVQAGGSLRLSCAASGSTFWPYAMGWYIQAPGKERELVAAITSSGGSTYYADSVKGRFTISRDNAKNTVYLQMNSLKAEDTAVYYCAADWSNLGAYDYWGQGTQVTVSS | low polyreactivity
QVQLVESGGGLVQAGGSLRLSCAASGSIFGGYGMGWYRQAPGKERELVAVITKRGGSTYYADSVKGRFTISRDNAKNTVYLQMNSLKPEDTAVYYCNADYRRYPEFDYWGQGTQVTVSS | high polyreactivity
QVQLVESGGGLVQAGGSLRLSCAASGFTLLPNALGWYRQAPGKERELVAAITASGGRTYYADSVKGRFSISRDNAKNTVYLLMKSLKPVDTAVYDCTAGVYYYTPYTRMDYWGQGTQVTVAS | low polyreactivity
QVQLVESGGGLVQAGGSLRLSCAASGFTFWLYAMGWYRQATGKERELVAAIDWDGGTYYADSVKGRFTISRDNAKNTVYLQMNSLKPEDTAVYYCAARYRYYYTRYDYWGQGTQVTVSS | high polyreactivity
QVQLVESGGGLVQAGGSLRLSCAASGSIFGRNAMGWYRQAPGKERELGAAMTGSGTSTYADSVKGRFTISRDNAKNTVYLQMNSLKPEDTAVYYCAAGVTTVEYEYCGQGTQVTVSS | low polyreactivity
QVQLVESGGGLVQAGGSLRLSCAASGRIFSRYTMGCYRQAPGKERELVAAISSRGGSTYYADSVKGRFTISRDNAKNTVYLQMNSLKPEDTAVYYCNTPSYSGSSPYDHWGQGTQVTVSS | high polyreactivity
QVQLVESGGGLVQAGGSLRLSCAASGSTFSFYAMGWYRQAPGKERELVAAISRSGGSTFYADSVKGRFTISRDNAKNTFYLQMNSLKAEDTAVYYCAAEYAYVPGWYEYWGQGTQVTVSS | high polyreactivity
QVQIVESGGGLFQAGGSLRLSCAASGGIFDFYAMGWYRPATGKEWELVAAITRSGSSTFYADSVKGRFTISRDNAKNTVYLQMNILKPEDTAVYYCAAPYSYFAVYYGYIVEYDYWGQGTQVTVSS | low polyreactivity
QVQLVESGGGLVQAGGSLRLSCAASGRIFDYYAMGWYRQAPGKERELVATINFSDGSTYYADSVKGRFTISRDNAKNTVYLQMNSLKPEDTAGYYCAAAGWEPYDSLDMNYWGQGTQVTVSS | low polyreactivity
QVHLVESGGGLVKAGGSLRLSCAASGSTSTLYAMGWYRQAPGKERELVAAISKSGGRTYYADSVKGRFTNSRDNAKNTVYLQMNSLKPEDTAVYYCNTVPGRYRTFDYWGQGTQVTVSS | high polyreactivity
QVQLEESGGGLVQAGGSLRLSCAASGSTFRYYAMGWYRQAPGKERELVAAISRSGGRTYYADSVKGRFTISRDNAKNTVYLQMNSLKPEDTAVYYCATRGDGSSWGDYDYWGQGTQVTVSS | high polyreactivity
QVQLVESGGGLVQAGGSLRLSCAASGSSTLMLMGWYRQAPGKERELVAVITSSGGRTYYADSVKGRFTISRDNAKNTVYLQMNSLKPEDTAVYYCNVDIGVYAYESDYWGQGTQVTVSS | low polyreactivity
QVQLVESGGGLVQAGGSLRLSCAASGRTFVPYVMGWYRQAPGKERELVAAISSSGGNTYYADSVKGRFTISPDNAKNTVYLQMNSLKPEDTAVYYCAARPRGYVYPGYYYWGQGSQVTVSS | high polyreactivity
QVQLVESGGGLVQAGGSLRLSCAASGRIFTTYAMGWYRQAPGKERELVAAISRSGGSTYYADSVKGRFTISRDNAKNTVYLQMNSLKPEDTAVYYCAAVPTSNSFRSSFYYWGQGTQVTVSS | high polyreactivity
QVQLVESGGGLVQAGGSLRLSCAASGSIFSPYAMGWYRQAPGKERELDASISSGTSTNYADSVKGRFTISRDNAKNTVYLQMNSLKPEDTAVYYCNAGADSTVRNYVTSFSQYDYWGQGTQVTVSS | low polyreactivity
QVQLVESGGGLVQAGGSLRLSSAASGFTFWYYAMGWYRQAPGKERELVAAITWNGGSTYYADSVKGRFTISRDNAKNTVYLQMNSLKPEDTAVYYCNAYSPFYPVPSEYDYWGQGTQVTVSS | high polyreactivity
QVQLVESGGGLVQAGCSLRLSYAASGLTFRRNPLGWYRQAPGKERELVATITSVGSTNYADSVKGRFTISRDNAKNTVYLQMISLKPEDTAVYYCRTVTYGYWGQGTQVTVSS | high polyreactivity
QVQLVESGGGLVQAGGSLRLSCAASGNIFFTYAMGWYRQAPGKERELVAAITSGGRTYYADSVKGRFTISRENPKNTFYLQMNSLKPEDTAVYYCASYYKYLGYGYWGQGTQVTVSS | high polyreactivity
